Experiments:
BmILF [1] = molecular target: T1, BmILF (Bombyx mori, UniProt A0A1U9WZ16 1-382); assay: EMSA; Hill fit; EMSA: 20 ul, 2.5% glycerol, 0.05% NP-40, 5 mM MgCl2, 4 mM EDTA, RT 20 min; probes folded in 50 mM Tris-TAE pH 4.0 (also 6.0, 8.0). MST: NanoTemper buffer with 100 mM Tris pH 6.0, 2.93-6000 nM BmILF, 25 C; conditions: protein: recombinant; label: 5' biotin; i-motif (folded by slow cooling at acidic pH)
T1 sequence: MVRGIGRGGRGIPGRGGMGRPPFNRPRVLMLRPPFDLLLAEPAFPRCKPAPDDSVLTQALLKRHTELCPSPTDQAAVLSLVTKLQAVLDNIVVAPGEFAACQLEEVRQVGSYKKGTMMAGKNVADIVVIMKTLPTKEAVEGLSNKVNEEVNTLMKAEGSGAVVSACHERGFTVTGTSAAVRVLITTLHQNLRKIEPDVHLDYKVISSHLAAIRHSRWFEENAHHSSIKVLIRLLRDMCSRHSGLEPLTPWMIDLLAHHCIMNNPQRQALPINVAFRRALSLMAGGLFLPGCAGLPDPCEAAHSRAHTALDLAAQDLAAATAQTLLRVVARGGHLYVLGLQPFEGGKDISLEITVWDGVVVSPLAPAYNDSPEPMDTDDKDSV

BmILF [2] = molecular target: T1, BmILF; assay: EMSA; pH 4.0; EMSA: 20 ul, 2.5% glycerol, 0.05% NP-40, 5 mM MgCl2, 4 mM EDTA, RT 20 min; probes folded in 50 mM Tris-TAE pH 4.0 (also 6.0, 8.0). MST: NanoTemper buffer with 100 mM Tris pH 6.0, 2.93-6000 nM BmILF, 25 C; conditions: protein: recombinant; label: 5' biotin; no i-motif by CD
BmILF [3] = molecular target: T1, BmILF; assay: MST; pH 6.0, 50 nM probe; EMSA: 20 ul, 2.5% glycerol, 0.05% NP-40, 5 mM MgCl2, 4 mM EDTA, RT 20 min; probes folded in 50 mM Tris-TAE pH 4.0 (also 6.0, 8.0). MST: NanoTemper buffer with 100 mM Tris pH 6.0, 2.93-6000 nM BmILF, 25 C; conditions: protein: recombinant; label: Cy5; i-motif (folded at pH 4.0)
BmILF [4] = molecular target: T1, BmILF; assay: EMSA; EMSA: 20 ul, 2.5% glycerol, 0.05% NP-40, 5 mM MgCl2, 4 mM EDTA, RT 20 min; probes folded in 50 mM Tris-TAE pH 4.0 (also 6.0, 8.0). MST: NanoTemper buffer with 100 mM Tris pH 6.0, 2.93-6000 nM BmILF, 25 C; conditions: protein: recombinant, label: 5' biotin

Binder: CCCCGCGCCCCCCGCGTCCCCCGCACCCCC (structured_DNA) [BGIBMGA003213-WT i-motif (EMSA)]
- Kd (BmILF [1]): 78 nM

Binder: CATTGCGATATCAGCGTTATCAGTATCAAT (ssDNA) [BGIBMGA003213-Mut]
- binding result (BmILF [2]): no binding

Binder: CCCCGCGCCCCCCGCGTCCCCCGCACCCCC (structured_DNA) [BGIBMGA003213-WT i-motif (MST)]
- Kd (BmILF [3]): 367 nM

Binder: CCAGTGCGGGGCGCGAGGGGGCCGAGGGGCGGGGCAACAA (structured_DNA) [BmPOUM2-G4]
- binding result (BmILF [4]; G4): no binding

Binder: GGGGGTGCGGGGGACGCGGGGGGCGCGGGG (structured_DNA) [BGIBMGA003213-G4]
- binding result (BmILF [4]; G4): no binding

Binder: CAGTGGCGGCCATCCGTTTAATATTACCGGATGGCCGCGCGAT (structured_DNA) [Hairpin]
- binding result (BmILF [4]; hairpin): no binding

Binder: TTGTTGCCCCGCCCCTCGGCCCCCTCGCGCCCCGCACTGG (structured_DNA) [BmPOUM2-WT i-motif (EMSA)]
- Kd (BmILF [1]): 119 nM

Binder: TTGTTGCCCCGCCCCTCGGCCCCCTCGCGCCCCGCACTGG (structured_DNA) [BmPOUM2-WT i-motif (MST)]
- Kd (BmILF [3]): 430 nM

Binder: TTGTTGTACTGCTACTCGGATCACTCGAGCATCGTACTGG (ssDNA) [BmPOUM2-Mut]
- binding result (BmILF [2]): no binding

From publication PMC7059380, “In vivo visualization of the i-motif DNA secondary structure in the Bombyx mori testis”
